Source: patent US20110143953A1 (ARIZONA BOARD OF REGENTS A BODY CORPORATE OF THE STATE OF …, published 2011)

Assays:
[1] = molecular target: T1, Gal80 (UniProt P04387 1-435, limits assumed, labelled with Cy3 or Cy5 in the peptide array screen); assay: SPR, gal80 immobilised on the chip, Kd from on and off rates
T1 sequence (looked up): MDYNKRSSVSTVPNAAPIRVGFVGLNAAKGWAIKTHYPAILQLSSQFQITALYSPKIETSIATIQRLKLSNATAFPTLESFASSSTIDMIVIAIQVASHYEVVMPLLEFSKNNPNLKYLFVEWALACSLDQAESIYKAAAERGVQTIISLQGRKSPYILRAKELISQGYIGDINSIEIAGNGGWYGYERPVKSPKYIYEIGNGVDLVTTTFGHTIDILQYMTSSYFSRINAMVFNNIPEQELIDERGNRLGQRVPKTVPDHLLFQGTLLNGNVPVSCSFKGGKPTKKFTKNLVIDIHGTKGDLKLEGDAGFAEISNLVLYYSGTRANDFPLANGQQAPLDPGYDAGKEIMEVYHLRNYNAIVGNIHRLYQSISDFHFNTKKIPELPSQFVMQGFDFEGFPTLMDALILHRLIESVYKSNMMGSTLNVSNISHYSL

[2] = molecular target: T2, transferrin (UniProt P02787 20-698, randomly labelled at free amines with Alexa 555 in the peptide array screen; amine-coupled to the chip in SPR); assay: SPR (Biacore T100), transferrin immobilized, steady-state response
T2 construct: also called TRF
From the text: Flow rates and contact times are adjusted as necessary to provide the surface concentration of target desired for the intended application, and may vary by target. In general, for evaluating whether binding occurs, it is preferable to immobilize a relatively large quantity of target, and higher flow rates and/or longer contact times may be used. For determining kinetics, it is preferable to limit the amount of target immobilized so as to minimize rebinding and avidity effects, and lower flow rates and/or contact times may be used.
Candidate affinity elements for the transferrin synbody TRF19, TRF21, TRF23, TRF24, TRF25, and TRF26 were individually evaluated for solution phase KD with respect to transferrin by SPR analysis. […] For each experiment, response data were processed using a reference surface to correct for bulk refractive index changes and any non-specific binding. Data were also double referenced using responses from blank running buffer injections.

[3] = molecular target: T1, Gal80; assay: gel shift assay; gel shift assay
[4] = molecular target: T1, Gal80; assay: SPR, synbody in solution (1 µM to 7.81 nM) on surface-bound Gal80; SPR, synbody in solution, surface-bound Gal80

T2 sequence (P02787 20-698 limits assumed): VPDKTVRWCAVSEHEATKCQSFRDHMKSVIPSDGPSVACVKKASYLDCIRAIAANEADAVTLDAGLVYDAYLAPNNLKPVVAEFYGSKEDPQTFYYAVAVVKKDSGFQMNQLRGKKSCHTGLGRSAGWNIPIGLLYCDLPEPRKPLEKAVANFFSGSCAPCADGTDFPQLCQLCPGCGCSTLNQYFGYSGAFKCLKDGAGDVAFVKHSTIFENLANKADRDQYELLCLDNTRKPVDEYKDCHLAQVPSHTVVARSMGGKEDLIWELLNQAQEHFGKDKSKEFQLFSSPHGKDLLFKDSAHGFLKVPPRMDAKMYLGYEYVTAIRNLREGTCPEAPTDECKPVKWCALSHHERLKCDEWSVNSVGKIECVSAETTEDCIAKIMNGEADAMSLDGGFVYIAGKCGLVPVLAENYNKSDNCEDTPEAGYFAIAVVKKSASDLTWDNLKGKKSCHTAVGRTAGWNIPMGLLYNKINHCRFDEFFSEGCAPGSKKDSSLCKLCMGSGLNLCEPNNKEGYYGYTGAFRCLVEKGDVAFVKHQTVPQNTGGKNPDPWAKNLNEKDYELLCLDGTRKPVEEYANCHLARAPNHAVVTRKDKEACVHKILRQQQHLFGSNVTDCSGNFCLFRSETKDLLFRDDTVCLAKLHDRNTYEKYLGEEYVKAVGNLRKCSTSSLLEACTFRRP

B1: BP1 on dsDNA (peptide)
peptide: GTEKGTSGWLKTGSC
modifications: chain 1 pos 15: Cys thiol joined via SMCC maleimide to an amine-modified cytosine of the double-stranded DNA linker. The DNA cannot be carried by the letters.
notes: also called BP1 complexed by itself to the double-stranded DNA linker
In the case of B1, the Kd [1] is reported as 0.482 µM.

B2: BP2 on dsDNA (peptide)
peptide: EGEWTEGKLSLRGSC
modifications: chain 1 pos 15: Cys thiol joined via SMCC maleimide to an amine-modified cytosine of the double-stranded DNA linker. The DNA cannot be carried by the letters.
notes: also called BP2 complexed by itself to the double-stranded DNA linker
B2 was tested, and the Kd [1] was 0.982 µM.

B3: TRF19 (peptide)
peptide: KEDNPGYSSEQDYNKLDGSC
notes: 20-mer random peptide; on the array it is attached by its C-terminal cysteine to the surface
B3 gave a Kd [2] of about 150 µM.

QYHHFMNLKRQGRAQAYGSC (20-mer random peptide) [TRF21] gave a Kd [2] of about 60 µM.

FRGWAHIFFGPHVIYRGGSC (20-mer random peptide) [TRF23] was tested, and the Kd [2] was about 50 µM.

SVKPWRPLLTGNRWLNSGSC [TRF24] showed a Kd [2] of about 50 µM.

For APYAPQQIHYWSTLGFKGSC (20-mer random peptide) [TRF25], the Kd [2] was about 60 µM.

In the case of AHKVVPQRQIRHAYNRYGSC (20-mer random peptide) [TRF26], the Kd [2] is reported as about 100 µM.

B4: linker-optimized BP1/BP2 DNA-linked synbody (BP1 on the template strand, BP2 at position 13 from the 3' end of the variable strand) (designed binder)
peptide 1: GTEKGTSGWLKTGSC
peptide 2: EGEWTEGKLSLRGSC
modifications: not fully specified; C-terminal cysteine conjugated through SMCC to the amine-modified cytosine at position 13 from the 3' end of the DNA variable strand (SEQ ID NO: 15); C-terminal cysteine conjugated through SMCC to the amine-modified 5' terminal cytosine of the DNA template strand (SEQ ID NO: 14)
notes: The two peptides are held about 5 nm apart by a double-stranded DNA linker; also called Gal80 synbody; gal80 synbody
B4 showed a Kd [3] of about 0.1 µM and a Kd [4] of 0.091 µM.
